B1: locked-trimeric MIF mutant MIF^N110C (natural protein)
chain: PMFIVNTNVPRASVPDGFLSELTQQLAQATGKPPQYIAVHVVPDQLMAFGGSSEPCALCSLHSIGKIGGAQNRSYSKLLCGLLAERLRISPDRVYINYYDMNAANVGWNCSTFA
modifications: disulfide bridge of the introduced cysteine (N110C) with Cys-81 of an adjacent subunit
B2: macrophage migration inhibitory factor, wild type (MIF^WT) (natural protein, human, UniProt P14174 1-115, looked up)
chain: MPMFIVNTNVPRASVPDGFLSELTQQLAQATGKPPQYIAVHVVPDQLMAFGGSSEPCALCSLHSIGKIGGAQNRSYSKLLCGLLAERLRISPDRVYINYYDMNAANVGWNNSTFA
notes: No tag is mentioned; Surmise: the initiator methionine is removed in E. coli, since tautomerase activity was measured; also called recombinant MIF; hMIF; source: E. coli BL21 (DE3), purified (Capto Q anion exchange, Capto S cation exchange)

Columns and labels:
[1] = target: the molecule itself; assay: SDS-PAGE without prior crosslinking; 10 µM recombinant MIF, non-crosslinked control; sample buffer without β-mercaptoethanol; 13% SDS-PAGE and anti-MIF immunoblot
[2] = target: T1, poly-histidine tagged apo-SOD1^WT (human, UniProt P00441 1-154); assay: SPR; ProteOn XPR36; poly-histidine tagged apo-SOD1^WT (1 µg, 736 RU) immobilised on tris-NTA HTG chip; MIF as analyte, 31-1000 nM, 25 µl/min; PBST (PBS 300 mM NaCl, 0.05% Tween-20); 25 °C; HTB1 channel subtracted; apparent affinity from steady-state values; conditions: both partners purified
T1 construct: Cu/Zn superoxide dismutase (SOD1), human, wild type, codon-optimised, in the pHIS1 vector; Apo form; It was captured on the tris-NTA chip by its His tag; also called Cu/Zn superoxide dismutase; source: E. coli BL21, purified (HisTrap FF); not shown: His6, N-terminal, kept
T1 sequence (P00441 whole entry): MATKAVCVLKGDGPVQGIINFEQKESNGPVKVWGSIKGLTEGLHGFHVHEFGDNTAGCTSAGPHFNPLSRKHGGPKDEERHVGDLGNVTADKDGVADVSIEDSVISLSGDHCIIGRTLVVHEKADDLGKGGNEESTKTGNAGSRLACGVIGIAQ

Row | Binder | stoichiometry N [1] | Kd [2] [nM]
1 | B1 | 3 | 548
2 | B2 | – | 1300
